{
  "source": "patent US20260256782",
  "tested_on": "ZF3-KRAB (MR-32054 bicistronic component) (synthetic construct)",
  "sequence (chain, as listed by the source)": "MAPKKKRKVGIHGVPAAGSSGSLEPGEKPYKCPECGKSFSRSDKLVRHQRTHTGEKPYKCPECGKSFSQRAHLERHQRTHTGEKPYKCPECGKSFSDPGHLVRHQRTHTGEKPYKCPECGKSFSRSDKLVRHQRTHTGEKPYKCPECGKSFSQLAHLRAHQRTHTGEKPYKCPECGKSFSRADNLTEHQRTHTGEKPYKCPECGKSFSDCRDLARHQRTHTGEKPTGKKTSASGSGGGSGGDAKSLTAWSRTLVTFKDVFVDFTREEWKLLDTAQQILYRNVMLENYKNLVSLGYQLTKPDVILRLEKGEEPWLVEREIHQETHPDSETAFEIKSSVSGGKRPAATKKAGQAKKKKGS",
  "test": "cell_activity",
  "conditions": "48 h, 0.5 ug/ml, combined effect with ZF9-MQ1, binding not measured directly",
  "data": [
    {"substance": "MYC upstream anchor (CTCF) ZF3 target site", "values": [
      {"measurement": "activity (% MYC protein reduction)", "setting": "H1975 cells", "result": 30},
      {"measurement": "activity (% MYC protein reduction)", "setting": "PC9 cells", "result": 47}
    ]}
  ]
}
